Data as given in PMC2670261, “Characterization of the interaction between Actinin-Associated LIM Protein (ALP) and the rod domain of α-actinin” (BMC Cell Biology, 2009).

Legend:
[1] = biological target: α-actinin 2 rod domain, spectrin repeats 1-4 (R1-R4) (human) (UniProt P35609); assay: SPR; Biacore 3000; α-actinin rod fragment (R1-R4 or R2-R3) immobilised by amine coupling on CM5; ALP107-273 or ALP peptides as soluble analyte; 20 mM Tris pH 7.4, 150 mM NaCl, 0.005% P20; apparent Kd
[2] = biological target: T1, α-actinin rod domain, spectrin repeats 1–4 (R1-R4) of human α-actinin 2 (Homo sapiens, UniProt P35609); assay: SPR interaction with α-actinin rod R1-R4; format: binding; details: for Kd: SPR, 20 mM Tris pH 7.4, 150 mM NaCl, 0.005% P20
T1 construct: Rod fragments containing spectrin repeats 1–4 (residues 274–746); His-tag (cleaved yes); made in house; host or cells: Escherichia coli BL21(DE3)
Excerpt: (§1) Internal fragments of human ALP (AF039018) and chicken ALP (AJ249218) were cloned into a modified pET24d vector (Novagen, Merck Biosciences, Schwalbach, Germany) as described earlier using BsmBI (NcoI)- NotI cloning sites. Rod fragments containing spectrin repeats 1–4 (residues 274–746) or repeats 2 and 3 (residues 371–637) of human α-actinin 2 have been described previously. A YFP-fusion of ALP107-273 was generated in a pEYFP-C1 vector (Clontech, BD Biosciences) at an EcoRI-BamHI restriction site. The deletion constructs of pEYFP-ALP107-273 were generated by PCR. The α-Actinin-CFP construct is described elsewhere. All constructs were verified by DNA sequencing.
(§2) ALP internal fragments and an α-actinin rod containing the spectrin repeats 1–4 (R1-R4) and a fragment containing spectrin repeats 2 and 3 (R2-R3) were expressed at +37°C for 3–4 h in Escherichia coli BL21(DE3) strain as previously described. Briefly, proteins were purified using nickel nitrilotriacetic acid-agarose (Qiagen) as a first step. The His-tag was removed by tobacco etch virus protease (Invitrogen). For further purification, size exclusion chromatography (Superdex 75 16/60 and 26/60 columns, Amersham Biosciences) for ALP, and ion exchange (ProteinPakQ 8HR columns, Waters) for α-actinin fragments were used. The molecular weight standards for the gel filtration were obtained from Bio-Rad Laboratories. For NMR analysis, ^15N-labelled ALP107-273 and ^15N^13C-labelled ALP107-273 were produced in general M9-media with supplements. Expression was induced with 1 mM isopropyl-1-thio-β-D-galactopyranoside (IPTG) at +37°C for 8 hrs in E. coli BL21(DE3) strain. Low molecular weight markers used in SDS-polyacrylamide electrophoresis were obtained from Amersham Biosciences. Five ALP peptides were purchased from EZBiolab Inc. (Westfield, IN, USA).
A Biacore 3000 system (Biacore, Uppsala, Sweden) was used for surface plasmon resonance (SPR) analysis. Ligand immobilization was performed via amine coupling to gold sensor chips (CM5). […]

[3] = biological target: ALP107-273 (internal region fragment of actinin-associated LIM protein, residues 107-273) (human); assay: SPR; Biacore 3000; ALP107-273 or peptide 3 immobilised by amine coupling on CM5; R1-R4 or R2-R3 as soluble analyte; 20 mM Tris pH 7.4, 150 mM NaCl, 0.005% P20; apparent Kd
[4] = biological target: T2, α-actinin 2 rod domain, spectrin repeats 1-4 (R1-R4) (human, UniProt P35609 274-746); assay: as above; details: both partners purified
T2 construct: α-actinin 2, human, spectrin repeats 1-4, residues 274-746; also called α-actinin rod; α-actinin rod region; source: E. coli BL21(DE3), purified (Ni-NTA, TEV removal of the His-tag, ion exchange)

[5] = test system: U2OS cells, α-actinin in actin stress fibres; assay: Live cell localization of YFP fusion with α-actinin-CFP; format: cell-based, human; details: YFP fusion expressed with α-actinin-CFP in living U2OS cells
Excerpt: as §1
Human osteosarcoma (U2OS) cells were maintained in Dulbecco's modified Eagle's medium (DMEM) supplemented with 10% fetal bovine serum (Hyclone), 2 mM L-glutamine, penicillin and streptomycin (Sigma-Aldrich). Transfected cells were re-plated on fibronectin (10 μg/ml) coated glass bottom dishes (MatTek). General growth medium was used as imaging medium. The time lapse images were acquired with an IX-71 inverted microscope (Olympus) equipped with a Polychrome IV monochromator (TILL Photonics) with the appropriate filters, an Andor iXon (Andor) camera, a heated sample environment (+37°C) and CO2-control. A PLAPON 60xO TIRFM 60x/1,45 (oil) objective (Olympus) was used. […]

[6] = biological target: T3, α-actinin spectrin repeats 2–3 (R2-R3) of human α-actinin 2 (Homo sapiens, UniProt P35609); assay: SPR interaction with α-actinin R2-R3; format: binding; details: Biacore 3000, R2-R3 immobilized, ALP107-273 as analyte
T3 construct: repeats 2 and 3 (residues 371–637) of human α-actinin 2; His-tag (cleaved yes); made in house; host or cells: Escherichia coli BL21(DE3)
Excerpt: as §1
ALP internal fragments and an α-actinin rod containing the spectrin repeats 1–4 (R1-R4) and a fragment containing spectrin repeats 2 and 3 (R2-R3) were expressed at +37°C for 3–4 h in Escherichia coli BL21(DE3) strain as previously described. Briefly, proteins were purified using nickel nitrilotriacetic acid-agarose (Qiagen) as a first step. The His-tag was removed by tobacco etch virus protease (Invitrogen). For further purification, size exclusion chromatography (Superdex 75 16/60 and 26/60 columns, Amersham Biosciences) for ALP, and ion exchange (ProteinPakQ 8HR columns, Waters) for α-actinin fragments were used. The molecular weight standards for the gel filtration were obtained from Bio-Rad Laboratories. […]

[7] = Concentration reached after purification; format: physicochemical; details: purified protein fragment
Procedure: as §2

[8] = test system: CHO cells, stress fibres; assay: Localization of YFP-ALP107-273 mutants at stress fibres; format: cell-based; details: YFP fused to ALP107-273 with deletions or mutations; CHO cells 24 h after transfection, 4 h on fibronectin; blinded scoring
Excerpt: as §1
The pEYFP ALP107-273 and mutants were transfected into CHO cells as described previously. Following 24 hrs transfection, the cells were seeded for 4 hrs on coverslips coated with 10 μg/ml human plasma fibronectin (Sigma) and fixed with 4% paraformaldehyde in 140 mM NaCl, 10 mM Na-Phosphate pH 7.4. The coverslips were coded and the number of cells with YFP localization at stress fibres was counted by two observers who were blinded to the identity of the samples. At least 100 cells were scored from each coverslip, four coverslips were used per transfection, and the experiment was repeated at least three times.

T1 sequence (P35609 274-746): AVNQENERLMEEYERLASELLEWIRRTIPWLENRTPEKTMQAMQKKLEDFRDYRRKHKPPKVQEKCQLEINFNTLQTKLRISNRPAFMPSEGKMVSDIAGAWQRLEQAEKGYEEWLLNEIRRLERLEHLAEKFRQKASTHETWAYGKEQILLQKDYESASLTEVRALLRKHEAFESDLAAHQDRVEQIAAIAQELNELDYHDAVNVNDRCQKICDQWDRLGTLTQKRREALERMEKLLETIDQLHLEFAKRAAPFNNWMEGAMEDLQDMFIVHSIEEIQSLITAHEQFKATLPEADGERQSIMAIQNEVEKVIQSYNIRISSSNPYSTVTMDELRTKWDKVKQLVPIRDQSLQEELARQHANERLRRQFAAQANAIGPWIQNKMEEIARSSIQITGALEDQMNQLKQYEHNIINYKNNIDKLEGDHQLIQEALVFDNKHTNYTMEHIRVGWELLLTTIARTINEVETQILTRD
T2 sequence (P35609 274-746): as above
α-actinin 2 rod domain, spectrin repeats 1-4 (R1-R4) (human), sequence (P35609 274-746): as above
T3 sequence (P35609 371-637): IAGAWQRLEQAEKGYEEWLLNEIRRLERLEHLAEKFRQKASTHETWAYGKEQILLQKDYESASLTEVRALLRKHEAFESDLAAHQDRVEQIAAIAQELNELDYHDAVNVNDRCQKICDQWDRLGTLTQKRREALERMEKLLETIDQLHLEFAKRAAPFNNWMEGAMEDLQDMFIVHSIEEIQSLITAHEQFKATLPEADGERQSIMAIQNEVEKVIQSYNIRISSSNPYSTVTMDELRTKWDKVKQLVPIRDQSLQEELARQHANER

ALP107-273 (internal region fragment of actinin-associated LIM protein, residues 107-273) (domain or fragment)
Kd [1]: 0.27 µM

MNKPEQALLVQIHPLVTEPFMG [scrambled version of peptide 3, scrambled peptide 3 containing the same amino acids in random order, reference compound]
interaction with the rod domain in SPR ([2]; comparison with peptide 3 (Fig 7D)): did not interact

α-actinin 2 rod domain, spectrin repeats 1-4 (R1-R4) (from UniProt P35609 274-746) (domain or fragment)
Kd [3]: 4.5 µM

B1: ALP peptide 3 (residues 175-196) (peptide)
peptide: PLEMELPGVKIVHAQFNTPMQL
notes: source: synthetic peptide, bought: EZBiolab Inc
Kd [4]: 3 µM

B2: ALP107-273: 167 residue construct of the human ALP internal region, residues 107–273; used as YFP fusion in cells (protein, UniProt Q53GG5 107-273, looked up, fragment)
chain: SEPQDGNYFEHKHNIRPKPFVIPGRSSGCSTPSGIDCGSGRSTPSSVSTVSTICPGDLKVAAKLAPNIPLEMELPGVKIVHAQFNTPMQLYSDDNIMETLQGQVSTALGETPLMSEPTASVPPESDVYRMLHDNRNEPTQPRQSGSFRVLQGMVDDGSDDRPAGTRS
modifications: YFP fusion
notes: 167 residue construct of the human ALP internal region, residues 107–273; used as YFP fusion in cells
co-localization with α-actinin [5]: co-localized with α-actinin in the stress fibres | Kd [6]: 0.0068 µM | concentration to which the purified fragment could be concentrated [7]: up to 30 mg/ml | Kd ([2]; Biacore 3000, CM5 amine coupling, R1-R4 immobilized, ALP107-273 as analyte): 0.27 µM | Kd ([2]; Biacore 3000, immobilized ALP107-273, soluble R1-R4): 4.5 µM

B3: YS197-198FA: YFP-ALP107-273 point mutant, conserved tyrosine and serine of ZM motif changed to phenylalanine and alanine (protein, UniProt Q53GG5 107-273, looked up, variant Y197F S198A)
chain: SEPQDGNYFEHKHNIRPKPFVIPGRSSGCSTPSGIDCGSGRSTPSSVSTVSTICPGDLKVAAKLAPNIPLEMELPGVKIVHAQFNTPMQLFADDNIMETLQGQVSTALGETPLMSEPTASVPPESDVYRMLHDNRNEPTQPRQSGSFRVLQGMVDDGSDDRPAGTRS
modifications: residues 107-273 YFP fusion
notes: YFP-ALP107-273 point mutant, conserved tyrosine and serine of ZM motif changed to phenylalanine and alanine
YFP localization at stress fibres [8]: abrogated localization
